Measured values from patent US20200345845A1 (RUBIUS THERAPEUTICS, published 2020).

Key:
CD20 (human) [1] = target: CD20 (human) (UniProt P11836); assay: flow cytometry, RCT binding to Z138 cells
CD20 (human) [2] = target: CD20 (human) (UniProt P11836); assay: flow cytometry, RCT binding to Granta-519 cells
CD20 (human) [3] = target: CD20 (human) (UniProt P11836); assay: flow cytometry, RCT binding to Toledo cells
CD20 (human) [4] = target: CD20 (human) (UniProt P11836); assay: cell-based or functional assay
CD20 (human) [5] = target: CD20 (human) (UniProt P11836); assay: flow cytometry, RCT binding to SU-DHL4 cells
PD-1 = PD-1 (UniProt Q15116); assay: cell-based or functional assay
CD20 = target: T1, CD20 (human, UniProt P11836 1-297); assay: immunofluorescence of co-culture with Ramos cells
T1 construct: whole, on cells; Endogenous CD20 on lymphoma cell lines; also called CD20 on CD20-expressing cell lines (Raji, Ramos, Z138, Granta-519, Toledo, SU-DHL4, DOHH-2)
T1 sequence (looked up): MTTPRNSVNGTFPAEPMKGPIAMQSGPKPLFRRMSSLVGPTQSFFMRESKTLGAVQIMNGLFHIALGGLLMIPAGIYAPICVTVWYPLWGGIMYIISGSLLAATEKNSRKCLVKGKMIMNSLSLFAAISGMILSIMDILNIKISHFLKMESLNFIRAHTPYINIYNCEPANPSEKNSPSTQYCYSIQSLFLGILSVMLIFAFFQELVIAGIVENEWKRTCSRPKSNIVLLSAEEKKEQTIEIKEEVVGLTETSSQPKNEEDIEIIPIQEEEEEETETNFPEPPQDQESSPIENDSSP

PD-1, sequence (Q15116 25-288 limits assumed): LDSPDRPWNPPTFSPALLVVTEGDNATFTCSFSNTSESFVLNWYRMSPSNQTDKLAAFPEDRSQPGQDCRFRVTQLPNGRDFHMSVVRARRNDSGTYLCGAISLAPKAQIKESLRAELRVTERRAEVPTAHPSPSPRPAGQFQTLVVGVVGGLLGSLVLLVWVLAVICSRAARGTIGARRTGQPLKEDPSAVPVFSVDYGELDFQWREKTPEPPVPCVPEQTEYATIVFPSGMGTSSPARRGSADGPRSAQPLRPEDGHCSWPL

Work on “RCT-antiCD20: enucleated erythroid cells expressing on their surface a fusion protein of a rituximab CD20 scFv domain, an HA epitope tag and full-length GPA” yielded a Percent cells bound (CD20 (human) [1]) of 43.7%, a Percent cells bound (CD20 (human) [2]) of 76% and a Percent cells bound (CD20 (human) [3]) of 37.1%. It also gave an apoptosis of Ramos cells after 48 hours of co-culture (CD20 (human) [4]) of 32% and a Percent cells bound (CD20 (human) [5]) of 91.3%.

For “RCT-antiPD1: enucleated erythroid cells expressing a fusion protein of a pembrolizumab-based anti-PD-1 scFv domain, an epitope tag (HA or Flag) and full-length GPA”, the interferon-gamma secretion of PBMC in an antigen recall assay (PD-1) was 3 to 4 fold.

B1: RCT-HA-GPA: control enucleated erythroid cells expressing on their surface the HA epitope tag fused to the N terminus of full-length GPA (other, not shown: small tags and cut ends)
chain: LSTTEVAMHTSTSSSVTKSYISSQTNDTHKRDTYAATPRAHEVSEISVRTVYPPEEETGERVQLAHHFSEPEITLIIFGVMAGVIGTILLISYGIRRLIKKSPSDVKPLPSPDTDVPLSSVEIENPETSDQ
notes: also called HA-GPA control RCT; control RCT-HA-GPA
B1: no binding (CD20).
